Measurements: the supplement of paper PMC10724198
± gives the standard deviation of the averaged measurements.

Columns and labels:
Saccharomyces cerevisiae [1] = test: protein stability index of tFT-peptide fusion (C-terminal peptide) (PSI (0-1 scale)); higher = more stable (slower turnover)
Protocol: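 MPS profiling in S. cerevisiae of the tFT-X12 degron library: putative degron peptides plus stable controls, 12 aa, fused to the C-terminus of a sfGFP-mCherry timer. Cells are FACS-sorted into 8 mCherry/sfGFP bins and deep-sequenced. PSI runs from 0 (unstable) to 1 (stable). Backgrounds are wild type, das1Δ and doa10Δ at 30 °C, and wild type, das1Δ, cdc34-1 and cdc53-1 at 37 °C; 2-3 technical replicates each.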

Saccharomyces cerevisiae [2] = test: as above; settings: genetic background: wild type; temperature: 30 C
[3] = genetic background: cdc34-1, temperature: 37 C
[4] = genetic background: cdc53-1, temperature: 37 C
[5] = genetic background: das1 deletion, temperature: 30 C
[6] = genetic background: das1 deletion, temperature: 37 C
[7] = genetic background: doa10 deletion, temperature: 30 C
[8] = genetic background: wild type, temperature: 30 C
[9] = genetic background: wild type, temperature: 37 C
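Note: PSI is a weighted mean of sequencing reads over stability bins, variants kept only with over 10 reads, mCherry proximal and sfGFP distal, peptide attached via GGGS linker.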

Sequence | protein stability index (Saccharomyces cerevisiae [1]; [3]) | protein stability index (Saccharomyces cerevisiae [1]; [4]) | protein stability index (Saccharomyces cerevisiae [1]; [5]) | protein stability index (Saccharomyces cerevisiae [1]; [6]) | protein stability index (Saccharomyces cerevisiae [1]; [7]) | protein stability index (Saccharomyces cerevisiae [1]; [8]) | protein stability index (Saccharomyces cerevisiae [1]; [9]) | protein stability index (Saccharomyces cerevisiae [2])
FLFFLFVVFVFV | 0.256 ± 0.041 | 0.35 ± 0.046 | 0.305 ± 0.022 | 0.379 ± 0.0046 | 0.323 ± 0.015 | 0.286 ± 0.013 | 0.3692 ± 0.0023 | 0.41 ± 0.07
LASWVVFIWFLW | 0.253 ± 0.026 | 0.348 ± 0.012 | 0.278 ± 0.018 | 0.41 ± 0.01 | 0.281 ± 0.031 | 0.25 ± 0.043 | 0.423 ± 0.041 | 0.329 ± 0.077
QGILVGCCYVLC | 0.426 ± 0.024 | 0.4409 ± 0.00073 | 0.313 ± 0.021 | 0.5035 ± 0.00077 | 0.2731 ± 0.0018 | 0.3 ± 0.023 | 0.4657 ± 0.0015 | 0.386 ± 0.022
VCVYLVSLPYLA | 0.451 ± 0.015 | 0.462 ± 0.025 | 0.39 ± 0.026 | 0.522 ± 0.021 | 0.239 ± 0.018 | 0.232 ± 0.03 | 0.381 ± 0.011 | 0.303 ± 0.035
LVGVLLAVWSVV | 0.2387 ± 0.00038 | 0.294 ± 0.039 | 0.249 ± 0.039 | 0.412 ± 0.0087 | 0.168 ± 0.0025 | 0.197 ± 0.019 | 0.338 ± 0.045 | 0.308 ± 0.017
FCRLCYLLLFCC | 0.37 ± 0.044 | 0.414 ± 0.012 | 0.404 ± 0.025 | 0.531 ± 0.022 | 0.211 ± 0.0056 | 0.196 ± 0.016 | 0.20208 ± 0.0002 | 0.254 ± 0.022
VPGPSPPRFTQR | 0.7134 ± 0.0016 | 0.762 ± 0.016 | 0.6584 ± 0.0019 | 0.741 ± 0.0094 | 0.644 ± 0.028 | 0.656 ± 0.011 | 0.692 ± 0.025 | 0.559 ± 0.1
VGAYSVVYVVFS | 0.481 ± 0.026 | 0.517 ± 0.011 | 0.322 ± 0.026 | 0.5467 ± 0.00081 | 0.272 ± 0.0067 | 0.318 ± 0.025 | 0.529 ± 0.0059 | 0.433 ± 0.036
PASYPPFIYLSI | 0.306 ± 0.012 | 0.288 ± 0.018 | 0.419 ± 0.032 | 0.496 ± 0.01 | 0.654 ± 0.018 | 0.418 ± 0.026 | 0.4461 ± 0.00056 | 0.434 ± 0.077
CNIYVLIIIKKY | 0.1831 ± 0.00032 | 0.298 ± 0.036 | 0.192 ± 0.026 | 0.344 ± 0.076 | 0.157 ± 0.0082 | 0.164 ± 0.039 | 0.325 ± 0.049 | 0.266 ± 0.1
LAPSRNRSVWLV | 0.591 ± 0.015 | 0.7308 ± 0.002 | 0.649 ± 0.016 | 0.74 ± 0.0098 | 0.104 ± 0.012 | 0.119 ± 0.018 | 0.199 ± 0.0086 | 0.247 ± 0.036
GVFVVVGEASVH | 0.546 ± 0.0025 | 0.5995 ± 0.0049 | 0.402 ± 0.023 | 0.574 ± 0.0029 | 0.389 ± 0.021 | 0.406 ± 0.017 | 0.564 ± 0.011 | 0.421 ± 0.023
ASPLRLFIPFLF | 0.678 ± 0.071 | 0.76 ± 0.017 | 0.632 ± 0.034 | 0.755 ± 0.036 | 0.192 ± 0.0066 | 0.211 ± 0.026 | 0.413 ± 0.0079 | 0.312 ± 0.058
ENKGGNQKRRKK | 0.686 ± 0.048 | 0.743 ± 0.056 | 0.628 ± 0.056 | 0.736 ± 0.012 | 0.646 ± 0.014 | 0.635 ± 0.021 | 0.698 ± 0.035 | 0.559 ± 0.18
LLVLPFFSLSRF | 0.896 ± 0.028 | 0.90351 ± 0.00018 | 0.774 ± 0.0081 | 0.8734 ± 0.0026 | 0.748 ± 0.024 | 0.763 ± 0.017 | 0.852 ± 0.019 | 0.816 ± 0.01
FLSPPPFLALLP | 0.7 ± 0.03 | 0.758 ± 0.022 | 0.675 ± 0.015 | 0.76275 ± 0.00029 | 0.691 ± 0.028 | 0.6908 ± 0.0045 | 0.717 ± 0.014 | 0.723 ± 0.023
IILGVRQIEVNS | 0.488 ± 0.012 | 0.517 ± 0.031 | 0.358 ± 0.029 | 0.526 ± 0.021 | 0.323 ± 0.0071 | 0.373 ± 0.031 | 0.52 ± 0.0076 | 0.4447 ± 0.0033
WILPASFCVVFL | 0.502 ± 0.012 | 0.5334 ± 0.0024 | 0.385 ± 0.021 | 0.5556 ± 0.005 | 0.425 ± 0.019 | 0.397 ± 0.016 | 0.528 ± 0.032 | 0.427 ± 0.027
FVGVVCILWLVG | 0.177 ± 0.0044 | 0.33 ± 0.0064 | 0.252 ± 0.022 | 0.405 ± 0.0085 | 0.153 ± 0.017 | 0.176 ± 0.026 | 0.318 ± 0.073 | 0.356 ± 0.011
